In patent US20210347873A1 (SHANGHAI PHARMAEXPLORER, published 2021):

T1: cynomolgus BLyS (full length, arginine to histidine at position 132) on CHO-K1 cells (cynomolgus, UniProt Q9Y275 1-285 (human entry))
T1 construct: also called cyno BLyS; CHO-K1 cynoBLyS
T1 chain: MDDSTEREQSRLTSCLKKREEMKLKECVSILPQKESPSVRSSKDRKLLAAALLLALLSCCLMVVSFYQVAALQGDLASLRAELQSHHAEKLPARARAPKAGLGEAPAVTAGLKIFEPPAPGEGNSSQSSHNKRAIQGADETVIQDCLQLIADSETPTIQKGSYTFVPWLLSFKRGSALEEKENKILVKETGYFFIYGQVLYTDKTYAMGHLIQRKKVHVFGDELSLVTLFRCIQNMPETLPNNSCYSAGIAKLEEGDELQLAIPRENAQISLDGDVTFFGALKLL

T2: human APRIL protein (human, UniProt O75888 105-250, limits assumed)
T2 construct: Bought protein; also called recombinant APRIL protein
T2 sequence (looked up): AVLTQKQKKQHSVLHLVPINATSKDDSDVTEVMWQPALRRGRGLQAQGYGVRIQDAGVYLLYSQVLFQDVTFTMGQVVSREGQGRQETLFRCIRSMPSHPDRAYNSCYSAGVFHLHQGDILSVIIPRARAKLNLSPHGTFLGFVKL


Key:
[1] = target: T3, human BLyS (full length, arginine to histidine at position 132) on CHO-K1 cells (human, UniProt Q9Y275 1-285); assay: flow cytometry, CHO-K1 hBLyS cells, antibody 0.0213 nM
T3 construct: also called hBLyS; CHO-K1 hBLyS
T3 sequence (Q9Y275 whole entry R130H): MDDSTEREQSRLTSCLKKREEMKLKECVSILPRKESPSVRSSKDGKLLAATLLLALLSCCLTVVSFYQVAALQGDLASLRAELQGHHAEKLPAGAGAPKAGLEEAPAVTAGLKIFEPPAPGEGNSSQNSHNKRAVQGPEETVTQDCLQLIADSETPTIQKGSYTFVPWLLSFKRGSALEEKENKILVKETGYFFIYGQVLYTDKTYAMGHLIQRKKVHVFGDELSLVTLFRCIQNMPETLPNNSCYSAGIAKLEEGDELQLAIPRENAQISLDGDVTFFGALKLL
Description: (§1) The medium was aspirated completely, and the cells were rinsed once with PBS buffer (purchased from Invitrogen) and then treated with cell dispersion solution (TrypLE™ Express Enzyme, purchased from Life technology) and collected. The detailed steps are as follows: the cells were rinsed once with PBS buffer, after counting, the cells were diluted to 2×10⁶ cells/ml with PBS buffer, blocked with 2% (w/w) fetal bovine serum and incubated on ice for 30 minutes. 200 μL of which per well was aliquoted into a 96-well FACS plate and centrifuged at 2000 rpm at 4° C., then each 100 μL of the lead antibodies obtained from Embodiment 1 and 2 were aliquoted into each well and incubated on ice for 1 hour. […] After centrifuged and rinsed 3 times with FACS buffer, cells were suspended with 200 μL of FACS buffer and the results were detected and analyzed by FACS (FACS Calibur, purchased from BD). It was shown in Tables 12-13 that the lead antibody could bind to human BLyS protein on the cell surface and the lead antibody could cross-react with cynomolgus BLyS. The data in the table is MFI, the average fluorescence intensity of the cell population.

[2] = target: mouse BLyS protein (mouse, UniProt Q9WU72 69-309); assay: cell-based or functional assay
mouse BLyS protein, sequence (Q9WU72 69-309): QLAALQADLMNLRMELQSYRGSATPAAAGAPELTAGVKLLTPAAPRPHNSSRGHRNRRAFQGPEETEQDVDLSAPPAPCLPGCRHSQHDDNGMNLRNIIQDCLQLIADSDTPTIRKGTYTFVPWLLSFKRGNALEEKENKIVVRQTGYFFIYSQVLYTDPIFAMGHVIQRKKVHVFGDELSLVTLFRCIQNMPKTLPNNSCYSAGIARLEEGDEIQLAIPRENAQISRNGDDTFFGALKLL

[3] = target: T1, cynomolgus BLyS (full length, arginine …); assay: flow cytometry, CHO-K1 cynoBLyS cells, antibody 0.534 nM
Description: as §1

[4] = target: T1, cynomolgus BLyS (full length, arginine …); assay: flow cytometry, CHO-K1 cynoBLyS cells, antibody 0 nM
Description: as §1

[5] = target: T3, human BLyS (full length, arginine to …); assay: flow cytometry, CHO-K1 hBLyS cells, antibody 66.7 nM
Description: as §1

[6] = target: T1, cynomolgus BLyS (full length, arginine …); assay: flow cytometry, CHO-K1 cynoBLyS cells, antibody 13.3 nM
Description: as §1

[7] = target: T3, human BLyS (full length, arginine to …); assay: flow cytometry, CHO-K1 hBLyS cells, antibody 0.107 nM
Description: as §1

[8] = target: T3, human BLyS (full length, arginine to …); assay: flow cytometry, CHO-K1 hBLyS cells, antibody 0.00427 nM
Description: as §1

[9] = target: T1, cynomolgus BLyS (full length, arginine …); assay: flow cytometry, CHO-K1 cynoBLyS cells, antibody 2.67 nM
Description: as §1

[10] = target: T3, human BLyS (full length, arginine to …); assay: flow cytometry, CHO-K1 hBLyS cells, antibody 2.67 nM
Description: as §1

[11] = target: T1, cynomolgus BLyS (full length, arginine …); assay: flow cytometry, CHO-K1 cynoBLyS cells, antibody 0.107 nM
Description: as §1

[12] = target: T3, human BLyS (full length, arginine to …); assay: flow cytometry, CHO-K1 hBLyS cells, antibody 0.534 nM
Description: as §1

[13] = target: T1, cynomolgus BLyS (full length, arginine …); assay: flow cytometry, CHO-K1 cynoBLyS cells, antibody 66.7 nM
Description: as §1

[14] = target: T3, human BLyS (full length, arginine to …); assay: flow cytometry, CHO-K1 hBLyS cells, antibody 0 nM
Description: as §1

[15] = target: T3, human BLyS (full length, arginine to …); assay: flow cytometry, CHO-K1 hBLyS cells, antibody 13.3 nM
Description: as §1

[16] = target: T1, cynomolgus BLyS (full length, arginine …); assay: flow cytometry, CHO-K1 cynoBLyS cells, antibody 0.00427 nM
Description: as §1

[17] = target: T1, cynomolgus BLyS (full length, arginine …); assay: flow cytometry, CHO-K1 cynoBLyS cells, antibody 0.0213 nM
Description: as §1

[18] = target: T2, human APRIL protein; assay: ELISA, coated APRIL; antibody 66.7 nM
Description: (§2) To test whether the BLyS antibody cross-reacted with human APRIL protein, APRIL protein (purchased from R & D Systems) was first diluted to a final concentration of 1.0 μg/mL with PBS, and then 50 μL of which per well was aliquoted into a 96-well ELISA plate, and the plate was subsequently sealed with plastic film and incubated at 4° C. overnight. On the next day the plate was rinsed four times with the plate washing buffer [PBS buffer containing 0.0500 (v/v) Tween20] and a blocking solution [PBS buffer containing 0.05 (v/v) Tween20 and 1 (w/w) BSA] was added, then the protein was blocked at 37° C. for 2 hours. The blocking solution was removed and 100 μL per well of the lead antibodies prepared in Embodiment 1 and 2 were added in. After incubation for 1 hour at 37° C., the plate was rinsed four times with the plate washing buffer [PBS buffer containing 0.05 (v/v) Tween20]. HRP-labeled (horseradish peroxidase) secondary antibody (purchased from Sigma) was added in and incubated at 37° C. for 1 hour. The plate was then rinsed four times with the plate washing buffer [PBS buffer containing 0.050 (v/v) Tween20]. 100 μL of TMB substrate was aliquoted into each well and after incubation at room temperature for 5 minutes, 100 μL of stop solution (1.0 N HCl) was aliquoted into each well. A₄₅₀ₙₘ values were read via an ELISA plate reader (SpectraMax M5e purchased from Molecular Devices) and the results were shown in FIGS. 6A-6B and Table 11. […] As used herein, the IgG control is human IgG and the data in the table is GD number at 450 nm.

[19] = target: T2, human APRIL protein; assay: ELISA, coated APRIL; antibody 0.00427 nM
Description: as §2

[20] = target: T2, human APRIL protein; assay: ELISA, coated APRIL; antibody 0 nM (blank)
Description: as §2

[21] = target: T2, human APRIL protein; assay: ELISA, coated APRIL; antibody 2.67 nM
Description: as §2

[22] = target: T2, human APRIL protein; assay: ELISA, coated APRIL; antibody 0.534 nM
Description: as §2

[23] = target: T2, human APRIL protein; assay: ELISA, coated APRIL; antibody 0.0213 nM
Description: as §2

[24] = target: T2, human APRIL protein; assay: ELISA, coated APRIL; antibody 13.3 nM
Description: as §2

[25] = target: T2, human APRIL protein; assay: ELISA, coated APRIL; antibody 0.107 nM
Description: as §2

MFI [1] [MFI] | mouse B lymphocyte proliferation (OD450 nm), antibody 0 nM [2] [OD450 nm] | mouse B lymphocyte proliferation (OD450 nm), antibody 0.000256 nM [2] [OD450 nm] | mouse B lymphocyte proliferation (OD450 nm), antibody 0.00128 nM [2] [OD450 nm] | mouse B lymphocyte proliferation (OD450 nm), antibody 0.0064 nM [2] [OD450 nm] | mouse B lymphocyte proliferation (OD450 nm), antibody 0.032 nM [2] [OD450 nm] | mouse B lymphocyte proliferation (OD450 nm), antibody 0.16 nM [2] [OD450 nm] | mouse B lymphocyte proliferation (OD450 nm), antibody 0.8 nM [2] [OD450 nm] | mouse B lymphocyte proliferation (OD450 nm), antibody 4 nM [2] [OD450 nm] | mouse B lymphocyte proliferation (OD450 nm), antibody 20 nM [2] [OD450 nm] | mouse B lymphocyte proliferation (OD450 nm), antibody 100 nM [2] [OD450 nm] | MFI [3] [MFI] | MFI [4] [MFI] | MFI [5] [MFI] | MFI [6] [MFI] | MFI [7] [MFI] | MFI [8] [MFI] | MFI [9] [MFI] | MFI [10] [MFI] | MFI [11] [MFI] | Binder | further results
83.6 | 2260 | 2090 | 2170 | 2180 | 2380 | 2120 | 2480 | 2200 | 2240 | 1920 | 808 | 19.8 | 535 | 978 | 194 | 46.8 | 933 | 474 | 349 | 20D1B6E9E5 (antibody, V domains shown, Mouse hybridoma monoclonal antibody purified on Protein G) VH: EVQLQQSVAELVRPGASVKLSCTASDFNIKNTYIHWVKQRPEQGLEWIGRIDPVNGNTKYAPKFQDKATIIVDTYSNTAYLQLSSLASEDTAVYYCARWPITTIVATDWYFDVWGTGTTVTVSS VL: DVLMTQTQLALPVRLGEQASISCRSSQSIVNSNGNTYLEWYLQKPGQSPKLLIYKVSNRFSGVPDRFSGSGSGTDFTLKISRVEAEDLGVYYCFQGSHVPWTFGGGTKLEIK | MFI [12]: 402 MFI; MFI [13]: 1030 MFI; MFI [14]: 31.8 MFI; MFI [15]: 498 MFI; MFI [16]: 50.4 MFI; MFI [17]: 118 MFI
 |  |  |  |  |  |  |  |  |  |  |  |  |  |  |  |  |  |  |  | 97E7B3F2 (antibody, V domains shown) VH: EVQLQQSGPELVKSGASVKISCKASGYTFTDHKMHWVKQSHGKSLEWIGYISPYNGGTGYNQKFKSKVTLTVDISSSTAYMELRSLTSEDSAVYYCARWGFYDVMDSWGQGTSVTVSS VL: DVLLTQTPLSLPVSLGDQASISCRSSQTIVHIIGDTYLEWYLQKPGQSPKLLIYKVSNRFSGVPDRFSGSGAGTDFTLKISRVEAEDLGVYYCFQGSHVPRTFGGGTKLEIK | OD450 nm [18]: 0.62; OD450 nm [19]: 0.0535; OD450 nm [20]: 0.0533; OD450 nm [21]: 0.0707; OD450 nm [22]: 0.0556; OD450 nm [23]: 0.0537; OD450 nm [24]: 0.182; OD450 nm [25]: 0.0705
 |  |  |  |  |  |  |  |  |  |  |  |  |  |  |  |  |  |  |  | 93C6F10D3 (antibody, V domains shown) VH: EVQLVESGGGLVTPGGSLKLSCVASGFAFSTYGMSWVRQTPERRLEWVAYISGGGGSIYYPDSVKGRFTISRDNAKNILYLQMSSLKSEDTAMYHCTRHPDLLLRYDYALDHWGQGTSVTVSS VL: DIQMTQSPASLSASVGETVTITCRASENIHIYLAWYQQKQGKSPQLLVYNGKTLADGVPSRFSGSGSGTQYSLKINTLQPEDFGNYYCQHFWNSTWTFGGGTKLEIK | OD450 nm [18]: 0.57; OD450 nm [19]: 0.0546; OD450 nm [20]: 0.0568; OD450 nm [21]: 0.0746; OD450 nm [22]: 0.0584; OD450 nm [23]: 0.0568; OD450 nm [24]: 0.171; OD450 nm [25]: 0.0551
54.9 | 2160 | 2160 | 2340 | 2520 | 2430 | 2410 | 2530 | 2520 | 2560 | 2490 | 501 | 20.3 | 609 | 1080 | 110 | 39.2 | 953 | 437 | 177 | 35E6F7C3 (antibody, V domains shown, Mouse hybridoma monoclonal antibody purified on Protein G) VH: EVQLQQSGAELVKPGASVKLSCTAAGFNIQDTYIHWVKQRPEQGLEWIGRIDPANANTVYDPKFQGKATITADTSSNTAYLQVSSLTSEDTAVYYCASPVITAGFAYWGQGTLVTVSA VL: QIVLTQSPAIMSASPGEKVTMTCGASSSVNYVHWYQQKSGTSPKRWIYDTSKLASGVPARFSGSGSGTSYSLTISSMEAEDAATYYCQQWTRSPLTFGAGTKVELK | MFI [12]: 247 MFI; MFI [13]: 1130 MFI; MFI [14]: 52.4 MFI; MFI [15]: 528 MFI; MFI [16]: 32.6 MFI; MFI [17]: 66.3 MFI
